Data from article PMC6565675, “Cryo-electron microscopy structure of an archaeal ribonuclease P holoenzyme” (Nature Communications, 2019).

What was measured:
[1] = target: T1, Methanocaldococcus jannaschii RNase P protein subunit Rpp30 (Methanocaldococcus jannaschii, UniProt Q58539 1-232); assay: cryo-EM structure; MjaRNase P holoenzyme reconstituted in vitro from RPR and the purified protein components, purified by SEC; alone (4.6 Å) and with E. coli tRNA^Tyr (4.3 Å); buffer exchanged on the grid to 40 mM Hepes, pH 7.5, 200 mM NaCl; C2 symmetry applied; conditions: both partners purified
T1 construct: Rpp30, protein subunit of RNase P of Methanocaldococcus jannaschii; full-length gene cloned; Purified as the (Pop5-Rpp30)2 heterotetramer; two copies in the dimeric holoenzyme; also called MjaRpp30; source: E. coli BL21 (DE3), co-expressed with MjaPop5 from pETDuet, purified (Ni-NTA, heating at 65 °C, ion-exchange, SEC)
T1 sequence (looked up): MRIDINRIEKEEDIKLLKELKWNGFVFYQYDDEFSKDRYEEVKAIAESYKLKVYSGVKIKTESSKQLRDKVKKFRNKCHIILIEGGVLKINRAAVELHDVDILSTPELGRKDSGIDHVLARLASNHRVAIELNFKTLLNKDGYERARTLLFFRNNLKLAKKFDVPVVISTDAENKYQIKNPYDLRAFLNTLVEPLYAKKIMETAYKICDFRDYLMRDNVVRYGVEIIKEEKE

[2] = target: T2, Methanocaldococcus jannaschii RNase P protein subunit Rpp21 (Methanocaldococcus jannaschii, UniProt Q58372 1-128); assay: as above; conditions: both partners purified
T2 construct: Rpp21, protein subunit of RNase P of Methanocaldococcus jannaschii; also called MjaRpp21; source: E. coli, expressed as the MjaRpp29-MjaRpp21 heterodimer, purified by the same procedure as Pop5-Rpp30
T2 sequence: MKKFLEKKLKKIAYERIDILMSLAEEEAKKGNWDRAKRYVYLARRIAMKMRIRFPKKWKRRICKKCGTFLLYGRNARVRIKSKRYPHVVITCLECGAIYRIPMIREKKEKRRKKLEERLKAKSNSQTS

B1: Methanocaldococcus jannaschii RNase P protein subunit Rpp29 (natural protein)
chain: MITPHNILRHELIGLKVEIVEAKNKAMIGIKGKVVDETRNTLVIEKEDGREVVIPKDIAVFLFQLKGCKVKVDGRLLIGRPEERLKKKIKILYPY
notes: Rpp29, protein subunit of RNase P of Methanocaldococcus jannaschii; also called MjaRpp29; source: E. coli, expressed as the MjaRpp29-MjaRpp21 heterodimer, purified by the same procedure as Pop5-Rpp30
B1: binds [1]; binds [2].
